The record followed here is patent publication US20190062438A1 (CSL, published 2019).

Common to all, as to assay: SPR, kinetics, Fab over captured mutant
In general terms: Surface plasmon resonance follows binding to a sensor surface in real time, without labels.

One assay concerns the target T1, shCD131 Q339A (human, UniProt P32927 17-438).
T1 construct: C-terminal 6xHis
T1 sequence: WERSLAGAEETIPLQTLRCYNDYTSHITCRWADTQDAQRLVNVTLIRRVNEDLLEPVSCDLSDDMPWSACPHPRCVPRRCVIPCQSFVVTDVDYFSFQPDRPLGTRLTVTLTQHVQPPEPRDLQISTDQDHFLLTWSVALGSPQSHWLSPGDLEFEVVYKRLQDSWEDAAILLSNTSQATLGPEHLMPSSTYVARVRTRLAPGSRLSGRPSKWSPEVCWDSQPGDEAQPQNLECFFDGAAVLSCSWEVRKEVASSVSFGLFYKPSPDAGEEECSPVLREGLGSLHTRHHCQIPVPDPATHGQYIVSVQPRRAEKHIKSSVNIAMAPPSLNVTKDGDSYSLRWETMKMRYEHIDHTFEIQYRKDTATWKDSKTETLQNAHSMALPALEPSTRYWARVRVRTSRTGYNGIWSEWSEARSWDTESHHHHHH
Here is the method:
(§1) As shβc is a dimer, kinetics assays were performed with shβc captured on the sensor surface, and purified Fab injected as the analyte. Avidity effects were avoided by the use of Fab rather than whole IgG.
(§2) shCD131 was captured on spots 1 and 5 of each flow cell for 2 minutes at a concentration of 0.4 μg/ml. […] For some analysis purified Fab was injected over each flow cell for 3 minutes and dissociation was monitored for a further 10 minutes. Regeneration of the surface was performed after each cycle with a 40 second injection of 25 mM glycine, pH 2.0. The analysis was performed with Fabs at several concentrations between 100 and 0.31 nM, with each concentration analyzed twice and in random order. The analysis was performed at a flow rate of 30 μl/min in HBS-EP buffer (10 mM Hepes, 150 mM NaCl, 3 mM EDTA, 0.005% Tween 20, pH 7.4) at 37° C. Responses from spots 2 and 4 of each flow cell, (in which shβc was not captured, but otherwise treated identically), were subtracted from those of spots 1 and 5 respectively to produce reference subtracted data. Reference subtracted responses from a blank injection comprising buffer alone were subtracted from the resultant sensorgrams to produce double referenced data suitable for kinetic analysis. Double-referenced sensorgrams were fitted using non-linear regression to a model describing 1:1 kinetics, including a term for mass transport limitation. The Rₘₐₓ value was fitted locally to account for slight deviations in the level of sCD131 captured, with association rate (kₐ), dissociation rate (kd) and equilibrium dissociation constant (KD) fitted globally.
(§3) Mapping of the shCD131 epitope was performed by measurement of the affinity of Fabs for various alanine point mutants of shCD131 essentially as described above, with the following exceptions. Each shCD131 mutant was captured for 120 seconds at concentrations between 1 and 5 μg/ml. For kinetic analysis, purified recombinant Fabs were injected for 2 minutes, and dissociation was monitored for a further 2 minutes. […] Fab concentrations ranged from 16 μM to 3.9 nM in two-fold dilutions.

A further assay concerns the target T2, shCD131 R364A (human, UniProt P32927 17-438).
T2 construct: C-terminal 6xHis
T2 sequence: T1 sequence with A323Q, R348A
Here is the method: as §1, §2, §3

The target of another assay is T3, shCD131 M363A (human, UniProt P32927 17-438).
T3 construct: C-terminal 6xHis
T3 sequence: T1 sequence with A323Q, M347A
Here is the method: as §1, §2, §3

The target in a further assay is T4, shCD131 T106A (human, UniProt P32927 17-438).
T4 construct: C-terminal 6xHis
T4 sequence: T1 sequence with T90A, A323Q
Here is the method:
as §1, §2, §3

Changes are numbered by the printed parent chain.

B1: 9A2 Fab (Fab, V domains shown)
VH: EVQLLESGGGLVQPGGSLRLSCAASGFTFSHYHMLWVRQAPGKGLEWVSSIRSSGGFTYYADSVKGRFTISRDNSKNTLYLQMNSLRAEDTAVYYCARFYDSFFDIWGQGTMVTVSS
VL: DIQMTQSPSSVSASVGDRVTITCRASQGISSWLAWYQQKPGKAPKLLIYAASSLQSGVPSRFSGSGSGTDFTLTISSLQPEDFATYYCQQANSFPITFGQGTRLEIKR
notes: also called recombinant Fab of 9A2
What is called Kd is the concentration at which binding is half-saturated. For the molecule B1, the Kd was 144 nM with shCD131 Q339A, 119 nM in the assay with shCD131 R364A, 171 nM with shCD131 M363A and 5.8 nM in the assay with shCD131 T106A.
